The target in assay [1] is T1, human serum albumin (human, UniProt P02768 25-609). The assay can be described thus: MST.
Assay [2] deals with T1, human serum albumin. Put plainly: BLI. For orientation: BLI is a label-free optical method that tracks binding on a fibre tip over time.
Assay [3] concerns the target T1, human serum albumin. Put plainly: BLI. This is another data set of the same source.

Broadly, the Kd is the concentration at which binding is half-saturated.

B1: DesAb-HSA-P1, C-terminal cysteine variant labelled with Alexa Fluor 647 (VHH)
VHH: EVQLEESGGGLVQPGGSLRLSCAASGFNIKDTYIGWVRQAPGKGEEWVASIYPTSGYTRYADSVKGRFTISADTSKNTAYLQMNSLRAEDTAVYYCAAGSIQKSLQTAESILEEFDYWGQGTLVTVSS
modifications: Alexa Fluor 647 (maleimide) on the free C-terminal cysteine of the Asp-Cys-Glu motif
Take B1: the Kd in assay [1] came to 140 nM.

B2: DesAb-HSA-P1 (VHH)
VHH: EVQLEESGGGLVQPGGSLRLSCAASGFNIKDTYIGWVRQAPGKGEEWVASIYPTSGYTRYADSVKGRFTISADTSKNTAYLQMNSLRAEDTAVYYCAAGSIQKSLQTAESILEEFDYWGQGTLVTVSS
With B2, the Kd in assay [2] amounted to 279 nM.

B3: Nb.B201 (VHH)
VHH: QVQLQESGGGLVQAGGSLRLSCAASGYISDAYYMGWYRQAPGKEREFVATITHGTNTYYADSVKGRFTISRDNAKNTVYLQMNSLKPEDTAVYYCAVLETRSYSFRYWGQGTQVTVSS
Consider B3, for which the Kd in assay [3] is roughly 370 nM.

B4: DesAb-HSA-P2 (VHH)
VHH: EVQLEESGGGLVQPGGSLRLSCAASGFNIKDTYIGWVRQAPGKGEEWVASIYPTSGYTRYADSVKGRFTISADTSKNTAYLQMNSLRAEDTAVYYCAAGSAQAGNAEEAEEEFDYWGQGTLVTVSS
In assay [2], B4 yielded a Kd of 412 nM.

B5: DesAb-HSA-P2, C-terminal cysteine variant labelled with Alexa Fluor 647 (VHH)
VHH: EVQLEESGGGLVQPGGSLRLSCAASGFNIKDTYIGWVRQAPGKGEEWVASIYPTSGYTRYADSVKGRFTISADTSKNTAYLQMNSLRAEDTAVYYCAAGSAQAGNAEEAEEEFDYWGQGTLVTVSS
modifications: Alexa Fluor 647 (maleimide) on the free C-terminal cysteine of the Asp-Cys-Glu motif
As for B5, the Kd in assay [1] amounted to 810 nM.

B6: DesAb-HSA-D3, C-terminal cysteine variant labelled with Alexa Fluor 647 (VHH)
VHH: EVQLQESGGGLVQAGGSLRLSCAASGELYALISMGWFRQAPGKEREFVAAISRNGDNTYYTDSVKGRFTISRDNAKNTVELQMNSLKPEDTAVYYCAADKFASPDGSVTIMTNEYDYWGQGTQVTVSD
modifications: Alexa Fluor 647 (maleimide) on the free C-terminal cysteine of the Asp-Cys-Glu motif
In turn, B6 returned a Kd in assay [1] of 146 nM.

B7: DesAb-HSA-D3 (VHH)
VHH: EVQLQESGGGLVQAGGSLRLSCAASGELYALISMGWFRQAPGKEREFVAAISRNGDNTYYTDSVKGRFTISRDNAKNTVELQMNSLKPEDTAVYYCAADKFASPDGSVTIMTNEYDYWGQGTQVTVSD
B7 returned a dissociation constant (Kd) in assay [2] of 308 nM.
